Measurements from US20260167959A1, “APTAZYME-BASED REGULATABLE GENE EXPRESSION SYSTEMS” (REJUVENATE BIO INC, priority 2022, published 2026).

B1: RA445 (nucleic acid)
DNA: GCGCGTCGAGAATACCAGCATCGTCTTGATGCCCTTGGAAGTCTCCTGGATTCGCGGAAACGCGTACATCCAGCTGACGAGTCCCAAATAGGACGAAACGCGC
modifications: expressed or natural sequence
B2: RA428 (nucleic acid)
DNA: GCGCGTCCTGGATTCGCGGAAACGCGTACATCCAGCTGACGAGTCCGAGAATACCAGCATCGTCTTGATGCCCTTGGAAGTCTCCAAATAGGACGAAACGCGC
modifications: expressed or natural sequence
B3: RA429 (nucleic acid)
DNA: GCGCGTCCTGGATTCGCGGGGAATACCAGCATCGTCTTGATGCCCTTGGAAGTCCAAACGCGTACATCCAGCTGACGAGTCCCAAATAGGACGAAACGCGC
modifications: expressed or natural sequence
B4: RA425 (nucleic acid)
DNA: GCGCGTCCTGGATTCGCGGAAACGCGTACAGGAATACCAGCATCGTCTTGATGCCCTTGGAAGTCCTCCAGCTGACGAGTCCCAAATAGGACGAAACGCGC
modifications: expressed or natural sequence
B5: RA448 (nucleic acid)
DNA: GCGCGCGGAATACCAGCATCGTCTTGATGCCCTTGGAAGTCCGTCCTGGATTCGCGGAAACGCGTACATCCAGCTGACGAGTCCCAAATAGGACGAAACGCGC
modifications: expressed or natural sequence
B6: RA442 (nucleic acid)
DNA: GCGCGTCCTGGATTCGCGGAAACGCGTACATCCGGAATACCAGCATCGTCTTGATGCCCTTGGAAGTCCGCAGCTGACGAGTCCCAAATAGGACGAAACGCGC
modifications: expressed or natural sequence
B7: RA449 (nucleic acid)
DNA: GCGCGTCCTGGATTCGCGGAAACGCGTACATCCAGCTGACGAGTCCCAAATAGGACGAAACGCGAGTGATACCAGCATCGTCTTGATGCCCTTGGCAGCACTC
modifications: expressed or natural sequence
B8: RA440 (nucleic acid)
DNA: GCGCGTCCTGGATTCGCGGAAACGCGTACATCCAGCTGACGAGTCCCAAATAGGACGAAACGCCGGAATACCAGCATCGTCTTGATGCCCTTGGAAGTCCGGC
modifications: expressed or natural sequence
B9: RA436 (nucleic acid)
DNA: GCGCGTCCTGGATTCGCGGAAACGCGTACATCCAGCGGAATACCAGCATCGTCTTGATGCCCTTGGAAGTCCGCTGACGAGTCCCAAATAGGACGAAACGCGC
modifications: expressed or natural sequence
B10: RA427 (nucleic acid)
DNA: GCGCGTCCTGCCGGAATACCAGCATCGTCTTGATGCCCTTGGAAGTCCGGGATTCGCGGAAACGCGTACATCCAGCTGACGAGTCCCAAATAGGACGAAACGCGC
modifications: expressed or natural sequence
B11: RA434 (nucleic acid)
DNA: GCGCGTCCAGAATACCAGCATCGTCTTGATGCCCTTGGAAGTCTTGGATTCGCGGAAACGCGTACATCCAGCTGACGAGTCCCAAATAGGACGAAACGCGC
modifications: expressed or natural sequence
B12: RA438 (nucleic acid)
DNA: GCGCGTCCTGGATTCGCGGAAACGCGTACATCCAGCTGACGAGTCCCAAATAGGACGCGGAATACCAGCATCGTCTTGATGCCCTTGGAAGTCCGAAACGCGC
modifications: expressed or natural sequence
B13: RA437 (nucleic acid)
DNA: GCGCGTCCTGGATTCGCGGAAACGCGTACATCCAGCTGACGAGTCCCAAGAATACCAGCATCGTCTTGATGCCCTTGGAAGTCTAATAGGACGAAACGCGC
modifications: expressed or natural sequence
B14: RA430 (nucleic acid)
DNA: GCGCGTCCTGGATTCGCGGAAACGCGTACATCCAGCTGAGAGAATACCAGCATCGTCTTGATGCCCTTGGAAGTCTCCGAGTCCCAAATAGGACGAAACGCGC
modifications: expressed or natural sequence
B15: RA444 (nucleic acid)
DNA: GCGCGTCCCGGAATACCAGCATCGTCTTGATGCCCTTGGAAGTCCGGCTGGATTCGCGGAAACGCGTACATCCAGCTGACGAGTCCCAAATAGGACGAAACGCGC
modifications: expressed or natural sequence
B16: RA439 (nucleic acid)
DNA: GCGCGTGAGAATACCAGCATCGTCTTGATGCCCTTGGAAGTCTCCCTGGATTCGCGGAAACGCGTACATCCAGCTGACGAGTCCCAAATAGGACGAAACGCGC
modifications: expressed or natural sequence
B17: RA450 (nucleic acid)
DNA: GCGCGTCCTGGATTCGCGGAAACGCGTACATCCAGCTGACGAGTCCCAAATAGGACGAAACCCGGAATACCAGCATCGTCTTGATGCCCTTGGAAGTCCGGGCGC
modifications: expressed or natural sequence
B18: RA431 (nucleic acid)
DNA: GCGCGTCCTGGATTCGCGGAAACGCGTACATCCACGGAATACCAGCATCGTCTTGATGCCCTTGGAAGTCCGGCTGACGAGTCCCAAATAGGACGAAACGCGC
modifications: expressed or natural sequence
B19: RA433 (nucleic acid)
DNA: GCGCGTCCTGGATTCGCGGAAACGCGTACATCCAGCTGACGAGTCCCAAATAGGAAGTGATACCAGCATCGTCTTGATGCCCTTGGCAGCACTCGAAACGCGC
modifications: expressed or natural sequence
B20: RA443 (nucleic acid)
DNA: GCGCGTCCTGGATTCGCGGAAACGCGTACATCCAGCTGACGAGTCCCAAATAGGACGGAATACCAGCATCGTCTTGATGCCCTTGGAAGTCCGCGAAACGCGC
modifications: expressed or natural sequence
B21: RA426 (nucleic acid)
DNA: GCGCGTCCTGGATTCGCGGAAACGCGTACATCCAGCTGACGAGTCCCAAATAGGACGCCGGAATACCAGCATCGTCTTGATGCCCTTGGAAGTCCGGAAACGCGC
modifications: expressed or natural sequence
B22: RA447 (nucleic acid)
DNA: GCGCGTCCTGGATTCGCGGAAACGCGTACATCCAGCTGACGAGTCCGGAATACCAGCATCGTCTTGATGCCCTTGGAAGTCCCAAATAGGACGAAACGCGC
modifications: expressed or natural sequence
B23: RA435 (nucleic acid)
DNA: GCGCGTCCTGGATTCGCGGAAACGCGTACATCCAGCTGACGAGTCCCAAACGGAATACCAGCATCGTCTTGATGCCCTTGGAAGTCCGTAGGACGAAACGCGC
modifications: expressed or natural sequence
B24: RA432 (nucleic acid)
DNA: GCGCGTCCTGGATTCGCGGAAACGCGTACATCCAGCTGACGAGTCCCACCGGAATACCAGCATCGTCTTGATGCCCTTGGAAGTCCGGAATAGGACGAAACGCGC
modifications: expressed or natural sequence
B25: RA446 (nucleic acid)
DNA: GCGCGTCCTGGATTCCGGAATACCAGCATCGTCTTGATGCCCTTGGAAGTCCGGCGGAAACGCGTACATCCAGCTGACGAGTCCCAAATAGGACGAAACGCGC
modifications: expressed or natural sequence
B26: RA441 (nucleic acid)
DNA: GCGCCCGGAATACCAGCATCGTCTTGATGCCCTTGGAAGTCCGGGTCCTGGATTCGCGGAAACGCGTACATCCAGCTGACGAGTCCCAAATAGGACGAAACGCGC
modifications: expressed or natural sequence
B27: RA044 (nucleic acid)
DNA: GCGGAGAATACCAGCATCGTCTTGATGCCCTTGGAAGTCTCCGTCCTGGATTCGCGGAAACGCGTACATCCAGCTGACGAGTCCCAAATAGGACGAAACGCGC
modifications: expressed or natural sequence
B28: RA042 (nucleic acid)
DNA: GCGCGTCCTGGATTCGCGGAAACGCGTACATCCAAGAATACCAGCATCGTCTTGATGCCCTTGGAAGTCTGCTGACGAGTCCCAAATAGGACGAAACGCGC
modifications: expressed or natural sequence
B29: RA043 (nucleic acid)
DNA: GCGCGTCCTCGAGAATACCAGCATCGTCTTGATGCCCTTGGAAGTCTCGGGATTCGCGGAAACGCGTACATCCAGCTGACGAGTCCCAAATAGGACGAAACGCGC
modifications: expressed or natural sequence

Each molecule was assayed on Renilla luciferase RNA (assay: Barcoded aptazyme variant library screen: un-cleaved Renilla luciferase RNA by barcode read counts, HEK293-T cells). Details: un-cleaved Renilla luciferase RNA by barcode read counts; with 1 mM theophylline (ON) over without theophylline (OFF); HEK293-T cells; triplicate.
Type: cell-based
Method in brief: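 Barcode sequencing of cDNA versus DNA, normalized per aptazyme, gave the un-cleaved Renilla luciferase RNA fraction and fold-change with versus without theophylline (triplicates). Library: T3H48 ribozyme with one of seven theophylline aptamer variants inserted at each position, placed in the Renilla 3′ UTR of a dual-luciferase vector.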

Question: Which “Fold change in RNA expression between the ON state and the OFF state” value (from here on “Fold change”) does the source give for B1 here?
Answer: 0.5

Question: For B2, which “Fold change” value is on record?
Answer: 0.6

Question: How did the “Fold change” value turn out when B3 was run?
Answer: 0.6

Question: With B4 as the molecule, how does the “Fold change” value read?
Answer: 0.6

Question: With B5 as the molecule, how does the “Fold change” value read?
Answer: 0.5

Question: How did the “Fold change” value turn out when B6 was run?
Answer: 0.6

Question: With B7 as the molecule, how does the “Fold change” value read?
Answer: 0.5

Question: For B8, which “Fold change” value is on record?
Answer: 0.6

Question: B9 was tested. Which “Fold change” value did it give?
Answer: 0.6

Question: Which “Fold change” value does the source give for B10 here?
Answer: 0.6

Question: How did the “Fold change” value turn out when B11 was run?
Answer: 0.6

Question: B12 was tested. Which “Fold change” value did it give?
Answer: 0.6

Question: For B13, which “Fold change” value is on record?
Answer: 0.6

Question: Which “Fold change” value does the source give for B14 here?
Answer: 0.6

Question: With B15 as the molecule, how does the “Fold change” value read?
Answer: 0.6

Question: With B16 as the molecule, how does the “Fold change” value read?
Answer: 0.6

Question: For B17, which “Fold change” value is on record?
Answer: 0.5

Question: With B18 as the molecule, how does the “Fold change” value read?
Answer: 0.6

Question: B19 was tested. Which “Fold change” value did it give?
Answer: 0.6

Question: B20 was tested. Which “Fold change” value did it give?
Answer: 0.6

Question: For B21, which “Fold change” value is on record?
Answer: 0.6

Question: For B22, which “Fold change” value is on record?
Answer: 0.5

Question: How did the “Fold change” value turn out when B23 was run?
Answer: 0.6

Question: For B24, which “Fold change” value is on record?
Answer: 0.6

Question: How did the “Fold change” value turn out when B25 was run?
Answer: 0.5

Question: With B26 as the molecule, how does the “Fold change” value read?
Answer: 0.6

Same assay, conditions: un-cleaved Renilla luciferase RNA, HEK293-T cells cultured with 1 mM theophylline (ON) over without theophylline (OFF); barcode read counts, triplicate

Question: With B27 as the molecule, how does the “Fold change” value read?
Answer: 2.1 fold

Question: How did the “Fold change” value turn out when B28 was run?
Answer: 2.1 fold

Question: Which “Fold change” value does the source give for B29 here?
Answer: 2.1 fold
